Results reported in publication PMC7926377.

How the values were obtained:
[1] = target: T1, His6-SplF (S. aureus strain 8325-4) (UniProt Q2FXC8)
T1 sequence: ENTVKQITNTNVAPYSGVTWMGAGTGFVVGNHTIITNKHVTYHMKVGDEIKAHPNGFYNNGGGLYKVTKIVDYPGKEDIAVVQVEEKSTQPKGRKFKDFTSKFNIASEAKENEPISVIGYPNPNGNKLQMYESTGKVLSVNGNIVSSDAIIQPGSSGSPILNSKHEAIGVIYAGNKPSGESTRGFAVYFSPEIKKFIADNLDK

[2] = target: Met-Gly-SplF-His6 (S. aureus strain 8325-4) (UniProt Q2FXC8)
[3] = target: T2, SplF-His6 (S. aureus strain 8325-4) (UniProt Q2FXC8)
T2 sequence: T1 sequence

Substance: ABZ-Tyr-Met-Leu-Ser-ANB-NH2 (peptide)
- KM of ABZ-Tyr-Met-Leu-Ser-ANB-NH2 hydrolysis (Michaelis-Menten fit, PBS, 37 °C) [1]: 21.4 µM
- KM of ABZ-Tyr-Met-Leu-Ser-ANB-NH2 hydrolysis (Michaelis-Menten fit, PBS, 37 °C) [2]: 18.2 µM
- KM of ABZ-Tyr-Met-Leu-Ser-ANB-NH2 hydrolysis (Michaelis-Menten fit, PBS, 37 °C) [3]: 30.8 µM
